Target: the molecule itself
Test: SEC-MALS; Superdex 200 10/300, 20 mM Tris-HCl pH 8.0, 150 mM NaCl, 0.4 mL/min, 25°C; BSA as the reference

B1: full-length mouse IRG1 (immune responsive gene 1) (enzyme, Mus musculus (mouse), UniProt P54987 1-488, looked up)
chain: MMLKSVTESFAGMIHGLKVNHLTDGIIRRSKRMILDSLGVGFLGTGTEVFHKVTQYSKIYSSNTSSTVWGRPDFRLPPTYAAFVNGVAVHSMDFDDTWHPATHPSGAVLPVLTALSEALPQIPKFSGLDLLLAFNVGIEVQGRLMHFSKEAKDIPKRFHPPSVVGTLGSAAAASKFLGLSLTKCREALAIAVSHAGAPIANAATQTKPLHIGNAAKHGMEATFLAMLGLQGNKQILDLGSGFGAFYANYSPEDLPSLDSHIWLLDQQDVAFKSFPAHLATHWVADAAAAVRKHLVTPERALFPADHIERIVLRIPDVQYVNRPFPDSEHEARHSFQYVACASLLDGSITVPSFHSQQVNRPQVRELLKKVKLEHPPDNPPSFDTLYCEISITLKDGTTFTERSDTFYGHWRKPLSQEDLRNKFRANASKMLCRDTVESLITVVEKLEDLEDCSVLTRLLKGPSVQDEASKLSSMSSFDHTTLPRFTNI
notes: immune responsive gene 1 (IRG1, cis-aconitate decarboxylase), Mus musculus, NCBI NP_032418.1, full length, residues 1 to 488, cloned into pET21a (NdeI/XhoI); In the crystal, molecule A was modelled from residues 5 to 463 and molecule B from residues 4 to 460; the rest was not traceable; also called cis-aconitate decarboxylase; CAD; source: E. coli BL21 (DE3), purified (Ni-NTA, SEC); not shown: …
stoichiometry N: 2

Source: article PMC7707506, “The crystal structure of mouse IRG1 suggests that cis-aconitate decarboxylase has an open and closed conformation” (PLoS ONE, 2020)
